The target of experiment [1] is GST-WAVE2 (UniProt Q9Y6W5). As to the kind of experiment: pull-down.
The target in experiment [2] is FLAG-WAVE2 (UniProt Q9Y6W5). As to the kind of experiment: co-IP.

The values below come from paper PMC3427469.

pKd: −log10 of the molar value.

Sequence of GST-WAVE2 (Q9Y6W5 whole entry): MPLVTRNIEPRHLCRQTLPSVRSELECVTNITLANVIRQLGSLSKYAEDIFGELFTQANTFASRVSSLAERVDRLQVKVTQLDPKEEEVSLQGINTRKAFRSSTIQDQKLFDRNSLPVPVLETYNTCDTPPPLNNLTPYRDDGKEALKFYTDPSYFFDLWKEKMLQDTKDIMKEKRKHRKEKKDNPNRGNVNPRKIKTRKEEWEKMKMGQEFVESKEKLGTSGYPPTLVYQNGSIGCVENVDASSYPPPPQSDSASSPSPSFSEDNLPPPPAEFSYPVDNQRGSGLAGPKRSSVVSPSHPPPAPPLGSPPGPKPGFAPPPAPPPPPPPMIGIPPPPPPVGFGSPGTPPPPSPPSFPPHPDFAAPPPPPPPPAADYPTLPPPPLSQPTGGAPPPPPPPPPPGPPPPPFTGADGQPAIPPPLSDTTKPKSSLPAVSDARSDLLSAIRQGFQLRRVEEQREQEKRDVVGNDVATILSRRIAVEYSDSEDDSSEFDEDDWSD
Sequence of FLAG-WAVE2 (Q9Y6W5 whole entry): as above

As usually defined, the pKd is the negative decadic logarithm of the Kd, by convention in mol/L. Take “Arp2/3 complex (purified) (from UniProt P61158 1-418)”: in experiment [1], the KD in the presence of Exo70 was 210 nM, the pKd was 6.33 and the fold increase of Arp2/3 bound in the presence of Exo70 against BSA turned out to be 3.5 fold.

For “Arp2/3 complex, endogenous in MDA-MB-231 cells (from UniProt P61158 1-418)”, in experiment [2], the Arp3 co-precipitated after Exo70 siRNA, percent of control siRNA-treated cells amounted to 44%.
